Substrate: O=C(O)C[C@H](C(=O)O)[C@@H](O)C(=O)O
Assay: purified protein
Assay type: biochemical, Toxoplasma gondii
Conditions: NADP+ co-substrate; Solarbio ICDHm kit

B1: TgICDH1 (Toxoplasma gondii) (protein)
chain: QRIKVDQPVVEMDGDEMARVIWAMIKEKLILPYLDIPLMYYDLSIQHRDKTDDQVTIDAALAIKRHGVGVKCATITPDEQRVKEFNLKKMWKSPNATIRNTLDGTIFRAPILMKNVPRLVPSWTKPIIIGRHAHADQYKALDFTVDKPGRFVMSFIPADKSNPEVHEVYEFKGGGVALGMYNTDASIKGFAHSCFQYALDQKMPLYLSTKNTVLKKYDGRFKDIFQTIYEKEYKQKFEEAGLWYEHRLIDDMVAQAIKSSGGFVWACKNYDGDVQSDVVAQGYGSLGLMTSVLVCPDGKTIEAEAAHGTVTRHYRQYQKGIKTSTNPIASIYAWTRSLGHRAKLDNNQKLKEFVEALEDACVETVEAGFMTKDLALAIKGDKLTDRDYLCTEDFMDKLARVAERKLLERQIISKA
notes: truncation AA180-594 (leader peptide removed), cloned from RH cDNA in pET-sumo, His-tag resin purified from E. coli BL21
Km: 160.7 µM

From publication PMC12234471, “The apicoplast localized isocitrate dehydrogenase is needed for de novo fatty acid synthesis in the apicoplast of Toxoplasma gondii” (Frontiers in Cellular and Infection Microbiology, 2025)
